Measured values as given in publication doi:10.1101/2020.06.12.148387 (bioRxiv, 2020).

Target: T1, SARS-CoV-2 Spike ectodomain (pre-fusion, with proline mutations) (SARS-CoV-2, early reference strain …, residues 986 and 987 mutated to a Pro-Pro sequence)
T1 construct: also called pre-fusion Spike; trimeric Spike
Assay: cryo-EM structure
Settings: both partners purified

B1: EY6A Fab (digested from IgG with papain) (Fab, V domains shown)
VH: EVQLVESGGGVVQPGRSLRLSCAASAFTFSSYDMHWVRQAPGKGLEWVAVISYDGSNKYYADSVKGRFTISRDNSKNTLYLQMNSLRAEDTAVYYCAKDGGKLWVYYFDYWGQGTLVTVSS
VL: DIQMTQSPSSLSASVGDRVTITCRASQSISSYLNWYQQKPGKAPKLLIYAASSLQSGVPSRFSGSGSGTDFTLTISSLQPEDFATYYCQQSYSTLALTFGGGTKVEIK
notes: also called Fab-EY6A; source: digested from ExpiCHO-made IgG with papain (Pierce Fab Preparation Kit)
stoichiometry N: 3 Fabs per Spike trimer
